Target: T1, receptor-binding domain (RBD) of the SARS-CoV-2 spike (S) protein (SARS-CoV-2, UniProt P0DTC2)
T1 construct: not shown: His6, C-terminal, kept
Assay: BLI
Conditions: both partners purified

B1: CC12.1 Fab (Fab, V domains shown)
VH: EVQLVESGGGLIQPGGSLRLSCAASGLTVSSNYMSWVRQAPGKGLEWVSVIYSGGSTFYADSVKGRFTISRDNSKNTLYLQMNSLRAEDTAVYYCARDLDVYGLDVWGQGTTVTVSS
VL: DIVMTQSPSFLSASVGDRVTITCRASQGISSYLAWYQQKPGKAPKLLIYAASTLQSGVPSRFSGSGSGTEFTLTISSLQPEDFATYYCQQLNSYPPKFTFGPGTKVEIK
notes: also called Fab CC12.1
- Kd: 17 nM

— paper doi:10.1101/2020.06.08.141267 (bioRxiv, 2020)
